Test results taken from US20250073269A1 (CAS LAMVAC GUANGZHOU BIOMEDICAL TECHNOLOGY, published 2025).
Values joined by “and” are separate entries in the source; they are usually repeats but may differ in a detail not shown here. Identical values can stand only once.

Tests used:
[1] = target: T1, catenated VAR2CSA recombinant protein AXVB (Plasmodium, isopeptide bond between SpyTag and SpyCatcher (intra- or intermolecular coupling, cyclization and catenation)); assay: ELISA, AXVB coated at 20 nM, 5H4 mAb titrated, non-linear regression; mean of three experiments
T1 construct: also called AXVB protein; AXVB navigator protein

[2] = target: T2, wild-type VAR2CSA recombinant protein (rVAR2) (Plasmodium); assay: ELISA, rVAR2 coated at 20 nM, 5H4 mAb titrated, non-linear regression; mean of three experiments
T2 construct: Monomer of about 73.1 kDa including the tag, with no intra- or intermolecular coupling; Prepared as in CN110325551B; also called rVAR2 protein; monomeric VAR2CSA recombinant protein
T2 chain: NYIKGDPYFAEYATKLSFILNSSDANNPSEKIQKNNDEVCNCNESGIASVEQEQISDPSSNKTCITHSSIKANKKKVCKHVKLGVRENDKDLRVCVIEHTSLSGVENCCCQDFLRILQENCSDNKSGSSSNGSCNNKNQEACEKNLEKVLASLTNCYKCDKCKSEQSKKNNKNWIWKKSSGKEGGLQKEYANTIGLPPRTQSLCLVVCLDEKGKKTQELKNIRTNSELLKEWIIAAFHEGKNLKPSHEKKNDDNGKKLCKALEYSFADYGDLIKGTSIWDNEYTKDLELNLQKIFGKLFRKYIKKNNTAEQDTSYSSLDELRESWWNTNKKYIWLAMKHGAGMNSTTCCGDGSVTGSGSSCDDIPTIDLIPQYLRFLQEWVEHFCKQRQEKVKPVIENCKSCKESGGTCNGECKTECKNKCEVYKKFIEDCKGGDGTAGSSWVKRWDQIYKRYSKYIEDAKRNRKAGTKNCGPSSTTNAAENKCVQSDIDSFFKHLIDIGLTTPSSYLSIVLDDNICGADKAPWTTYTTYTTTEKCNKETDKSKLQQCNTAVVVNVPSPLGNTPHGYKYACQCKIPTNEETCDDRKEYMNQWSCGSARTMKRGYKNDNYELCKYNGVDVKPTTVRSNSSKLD

[3] = target: T1, catenated VAR2CSA recombinant protein …; assay: ELISA, AXVB coated, 5H4 mAb titrated; single experiment of three (FIG. 10)
Experimental: (§1) (1) Antigen coating: The AXVB and rVAR2 proteins were diluted to a final concentration of 20 nM with the Na₂CO₃—NaHCO₃ carbonate coating buffer (with a pH of 9.6) which was filtered and sterilized by the 0.22 μm filter membrane, respectively, 100 μL of each protein sample was added to a 96-well Elisa plate (JET BIOFIL, Guangzhou, China, Cat. #FEP101896), with three replicates per protein sample, and the Elisa plate was covered with a sealing film and incubated at 4° C. overnight. […] (2) Antigen blocking: The coating solution in the Elisa plate was removed, the Elisa plate was washed with a PBST solution (1×PBS+0.05% v/v polyoxyethylene sorbitan fatty acid ester, with a pH of 7.2-7.4) three times, the liquid was patted dry, 200 μL of PBST solution containing 5% BSA was added, and the Elisa plate was then incubated at room temperature for 2 hours. […] (3) Primary antibody incubation: The antigen blocking solution was removed, the Elisa plate was washed with the PBST solution three times, and 100 μL of 5H4 mAb at different concentrations which was diluted with an antibody dilution solution (1×PBS containing 0.1% BSA) in different ratios was added to each well.

[4] = target: T2, wild-type VAR2CSA recombinant protein …; assay: ELISA, rVAR2 coated, 5H4 mAb titrated; single experiment of three
Experimental: as §1

[5] = target: T2, wild-type VAR2CSA recombinant protein …; assay: ELISA, rVAR2 coated, 5H4 mAb titrated; single experiment of three (FIG. 11)
Experimental: as §1

[6] = target: T1, catenated VAR2CSA recombinant protein …; assay: ELISA, AXVB coated, 5H4 mAb titrated; single experiment of three
Experimental: as §1

B1: monoclonal antibody 5H4 (5H4 mAb) (antibody, V domains shown)
VH: EVKLVESGGGLVKPGGSLKLSCAASGFTFSNYAMSWVRQSPERRLEWVAEISITGRYTYYPDTVTGRFTISRDNAKNTLYLEMSSLRSEDTAMYYCTREGYDYAPSWFAYWGQGTLVTVSA
VL: DVVMTQTPLSLPVSLGDQASISCRSGQTLVHRNGITYLEWYLQKPGQSPKLLIYKVSNRFSGVPDRFSGSGSGTDFTLKISRVEAEDLGIYYCFQGSHVPRTFGGGTKLEIK
notes: Mouse monoclonal antibody, detected with anti-mouse IgG; also called mouse anti-rVAR2 protein monoclonal antibody 5H4 mAb
Work on B1 yielded a Kd [1] of 83.7 nM, a Kd [2] of 144 nM and a Kd [3] of 77.8 nM. The Kd [4] was 123 nM and 174 nM, the Kd [5] was 136 nM and the Kd [6] was 73 nM and 100 nM.
